Measured values published in patent US20240228592A1 (BIO THERA SOLUTIONS, published 2024).

Molecular target: T1, spike-RBD-mFC (sino biologicals) (SARS-COV-2, UniProt P0DTC2 319-541)
T1 construct: domain: RBD; also called spike protein in SARS-COV-2
Experiment: ELISA, spike-RBD-mFC coated, anti-human kappa light chain-peroxidase detection

B1: antibody 9 (antibody, V domains shown)
VH: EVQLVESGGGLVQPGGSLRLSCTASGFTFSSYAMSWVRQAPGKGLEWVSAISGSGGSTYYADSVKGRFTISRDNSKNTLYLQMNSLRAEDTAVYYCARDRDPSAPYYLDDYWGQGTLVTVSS
VL: DIQMTQSPSSLSASVGDRVTITCRASQGISSYLAWYQQKPGKAPKLLIYAASSLQSGVPSRFSGSGSGTDFTLTISSLQPEDFATYYCQQHYTTPPTFGQGTKVEIKR
- EC50: 2.76 nM
